Series [1] addresses T1, His6-Fur (UniProt Q66DC2 1-148). Nature of the series: EMSA; 5 mM MgCl2, 50 ng poly(dI-dC); […] (pH not stated); ITC: PBS, 25 C. The conditions noted are these: protein: recombinant; tags: His6; chain copies: 2; label: 5' biotin (BioT6SS-1pF); blunt. On the technique in general: A gel shift assay detects complexes by their altered migration in electrophoresis.
Series [2] addresses T1, His6-Fur. Nature of the series: competition; […] (pH not stated); ITC: PBS, 25 C. The following applies: protein: recombinant; tags: His6; chain copies: 2; blunt.

B1: BioT6SS1-p (dsDNA)
DNA 1: TATCGCAATAAAAATGCCACTCATGTTTTAATATA
DNA 2: TATATTAAAACATGAGTGGCATTTTTATTGCGATA
On to B1, for which the binding result in series [1] is “binds”.

B2: T6SS1-p (unlabeled) (dsDNA)
DNA 1: B1 DNA 1
DNA 2: B1 DNA 2
As to B2, in series [2], the binding result is on record as “binds”.
